Reference: the Immune Epitope Database (IEDB)

Assays:
HLA-B*53:01 = test: IEDB peptide-MHC binding, purified MHC/competitive/radioactivity; filed as Kd, often an IC50 or EC50 that approximates it; ≥ and ≤ were set here for values at or beyond the usual limits of such assays
HLA-B*07:02 = test: as above
HLA-B*51:01 = test: as above
HLA-B*35:01 = test: as above
HLA-B*54:01 = test: as above
HLA-B*08:01 = test: as above
HLA-A*02:03 = test: as above; settings: source organism: Vaccinia virus Copenhagen
HLA-A*11:01 [1] = test: as above; settings: source organism: Vaccinia virus Copenhagen
HLA-A*02:06 = test: as above; settings: source organism: Vaccinia virus Copenhagen
HLA-A*68:01 = test: as above; settings: source organism: Vaccinia virus Copenhagen
HLA-A*31:01 [2] = test: as above; settings: source organism: Vaccinia virus Copenhagen
HLA-A*33:01 = test: as above; settings: source organism: Vaccinia virus Copenhagen
HLA-A*02:02 = test: as above; settings: source organism: Vaccinia virus Copenhagen
HLA-A*03:01 [3] = test: as above; settings: source organism: Vaccinia virus Copenhagen
HLA-A*02:01 [4] = test: IEDB peptide-MHC binding, purified MHC/competitive/fluorescence; filed as Kd, often an IC50 or EC50 that approximates it; ≥ and ≤ were set here for values at or beyond the usual limits of such assays; settings: source organism: Vaccinia virus L-IPV
HLA-B*15:03 = test: IEDB peptide-MHC binding, purified MHC/competitive/radioactivity; filed as Kd, often an IC50 or EC50 that approximates it; ≥ and ≤ were set here for values at or beyond the usual limits of such assays; settings: source organism: Vaccinia virus WR
HLA-B*57:01 = test: as above
HLA-A*30:01 = test: as above; settings: source organism: Vaccinia virus WR
HLA-A*32:01 = test: as above; settings: source organism: Vaccinia virus WR
HLA-A*11:01 [5] = test: IEDB peptide-MHC binding, purified MHC/direct/fluorescence; filed as Kd, often an IC50 or EC50 that approximates it; ≥ and ≤ were set here for values at or beyond the usual limits of such assays
HLA-A*03:01 [6] = test: as above
HLA-A*31:01 [7] = test: IEDB peptide-MHC binding, purified MHC/competitive/fluorescence; filed as Kd, often an IC50 or EC50 that approximates it; ≥ and ≤ were set here for values at or beyond the usual limits of such assays
HLA-A*02:01 [8] = test: IEDB peptide-MHC binding, purified MHC/competitive/radioactivity; filed as Kd, often an IC50 or EC50 that approximates it; ≥ and ≤ were set here for values at or beyond the usual limits of such assays; settings: source organism: Lassa virus Josiah
[9] = source organism: Vaccinia virus WR
[10] = source organism: Vaccinia virus Copenhagen
[11] = source organism: Triticum aestivum
[12] = source organism: Dengue virus 1 Brazil/97-11/1997
[13] = source organism: Mammarenavirus juninense
[14] = source organism: SARS coronavirus Tor2
[15] = source organism: Dengue virus 3 Martinique/1243/1999
[16] = source organism: Orthohantavirus dobravaense

With MPTDMLKLF the Kd (HLA-B*53:01; [9]) was 0.141 nM, the Kd (HLA-B*07:02; [9]) was 17.8 nM and the Kd (HLA-B*51:01; [9]) was 99.2 nM. For the same sequence, the Kd (HLA-B*35:01; [9]) was 0.163 nM and the Kd (HLA-B*54:01; [9]) was 28.6 nM.

NFMQRIISL showed a Kd (HLA-B*08:01; [9]) of 1490 nM.

NLFDIPLLTV showed a Kd (HLA-A*02:03) of 0.253 nM, a Kd (HLA-A*11:01 [1]) of at least 69800 nM and a Kd (HLA-B*53:01; [10]) of at least 69900 nM. The Kd (HLA-B*07:02; [10]) was 17100 nM, the Kd (HLA-B*51:01; [10]) was at least 69600 nM and the Kd (HLA-A*02:06) was 1.55 nM. It also gave a Kd (HLA-B*35:01; [10]) of at least 69900 nM, a Kd (HLA-A*68:01) of at least 21900 nM and a Kd (HLA-A*31:01 [2]) of at least 22300 nM. It also gave a Kd (HLA-B*54:01; [10]) of 18800 nM, a Kd (HLA-A*33:01) of 11800 nM and a Kd (HLA-A*02:02) of 0.0997 nM. It also gave a Kd (HLA-A*03:01 [3]) of at least 48000 nM and a Kd (HLA-A*02:01 [4]) of at most 0.1 nM.

Sequence NMGVAMNLF has a Kd (HLA-B*15:03) of 998 nM.

PPCQCTVQEF showed a Kd (HLA-B*53:01; [9]) of 5150 nM, a Kd (HLA-B*07:02; [9]) of at least 45300 nM and a Kd (HLA-B*51:01; [9]) of at least 69600 nM. The Kd (HLA-B*35:01; [9]) was at least 23400 nM and the Kd (HLA-B*54:01; [9]) was at least 69900 nM.

With QPEKEIPEY the Kd (HLA-B*53:01; [9]) was 45.2 nM, the Kd (HLA-B*07:02; [9]) was at least 36900 nM and the Kd (HLA-B*51:01; [9]) was at least 37700 nM. It also gave a Kd (HLA-B*35:01; [9]) of 15.6 nM and a Kd (HLA-B*54:01; [9]) of at least 43700 nM.

For QPFRPQQPY, the Kd (HLA-B*53:01; [11]) was at least 35200 nM, the Kd (HLA-B*07:02; [11]) was at least 77500 nM and the Kd (HLA-B*51:01; [11]) was at least 77500 nM. The Kd (HLA-B*35:01; [11]) was 296 nM and the Kd (HLA-B*54:01; [11]) was at least 78100 nM.

RASFIEVKTC gave a Kd (HLA-B*57:01; [12]) of 53.7 nM.

In the case of RKNHIYNSF, the Kd (HLA-B*15:03) is reported as 0.132 nM.

RQFEKDRSF showed a Kd (HLA-B*15:03) of 0.143 nM.

For RSKDTHVFA, the Kd (HLA-B*15:03) was 182 nM and the Kd (HLA-A*30:01) was 0.0187 nM.

Sequence RSMYRIPPF has a Kd (HLA-A*32:01) of 0.726 nM and a Kd (HLA-B*08:01; [9]) of 157 nM.

With SILSSFFSL the Kd (HLA-B*08:01; [9]) was 229 nM.

For SQRFIFNII, the Kd (HLA-B*15:03) was 299 nM, the Kd (HLA-A*32:01) was 1870 nM and the Kd (HLA-B*08:01; [9]) was 653 nM.

TPDNFSSLI showed a Kd (HLA-B*53:01; [13]) of 372 nM, a Kd (HLA-B*07:02; [13]) of 11300 nM and a Kd (HLA-B*51:01; [13]) of 1710 nM. The Kd (HLA-B*35:01; [13]) was 15300 nM and the Kd (HLA-B*54:01; [13]) was at least 78100 nM.

For TPKYKFVRI, the Kd (HLA-B*53:01; [14]) was 16000 nM, the Kd (HLA-B*07:02; [14]) was at least 10000 nM and the Kd (HLA-B*51:01; [14]) was 16100 nM. For the same sequence, the Kd (HLA-B*35:01; [14]) was at least 77400 nM and the Kd (HLA-B*54:01; [14]) was at least 46200 nM.

With TPLISFFGLF the Kd (HLA-B*53:01; [9]) was 31.1 nM, the Kd (HLA-B*07:02; [9]) was 1140 nM and the Kd (HLA-B*51:01; [9]) was 4970 nM. The Kd (HLA-B*35:01; [9]) was 416 nM and the Kd (HLA-B*54:01; [9]) was 3960 nM.

In the case of VLFMVAWGK, the Kd (HLA-A*11:01 [5]; source organism: Amur virus) is reported as 76 nM, the Kd (HLA-A*03:01 [6]; source organism: Amur virus) is reported as 2260 nM and the Kd (HLA-A*31:01 [7]; source organism: Hantaan virus 76-118) is reported as 161 nM.

For VLKGLYNFA, the Kd (HLA-A*02:01 [8]) was 6250 nM.

Work on VLRTKITSL yielded a Kd (HLA-B*08:01; [9]) of 0.92 nM.

For VMAVGLVSIL, the Kd (HLA-B*08:01; [15]) was 154 nM.

For VPEFAKQYV, the Kd (HLA-B*53:01; [9]) was 5150 nM, the Kd (HLA-B*07:02; [9]) was 128 nM and the Kd (HLA-B*51:01; [9]) was 718 nM. For the same sequence, the Kd (HLA-B*35:01; [9]) was at least 32600 nM and the Kd (HLA-B*54:01; [9]) was 1600 nM.

VQSFKINIF gave a Kd (HLA-B*15:03) of 51.3 nM.

In the case of VTYDYIIPK, the Kd (HLA-A*11:01 [5]; [16]) is reported as 1.2 nM, the Kd (HLA-A*03:01 [6]; [16]) is reported as 50.8 nM and the Kd (HLA-A*31:01 [7]; source organism: Kurkino virus) is reported as 42.4 nM.

Work on VVYIILAPK yielded a Kd (HLA-A*11:01 [5]; source organism: Mycobacterium tuberculosis) of 27.4 nM and a Kd (HLA-A*31:01 [7]; source organism: Mycobacterium leprae) of 300 nM.

Sequence WCRLKFHIV has a Kd (HLA-B*08:01; [10]) of 81.9 nM.

With WFSRENSYSG the Kd (HLA-B*57:01; [15]) was 7000 nM.

For WTSGASTSQE, the Kd (HLA-B*57:01; [12]) was 206 nM.

YQHFVARVF was tested, and the Kd (HLA-B*15:03) was 0.399 nM.
